The supplement of paper PMC7877785
± gives the uncertainty stated by the source.

Test: self-splicing fitness, log relative to wild type (ln ratio); higher = more splicing; Tetrahymena group I intron in knt gene, E. coli kanamycin selection, DiMSum; sequences stand for … in CUCUCU…GGAGGGAAAAGUUAUCAGGCAUGCACCUGGUAGCUAGUCUUUAAACCAAUAGAUUGCAUCGGUUUAAAAGGCAAGACCGUCAAAUUGCGGGAAAGGGGUCAACAGCCGUUCAGUACCAAGUCUCAGGGGAAACUUUGAGAUGGCCUUGCAAAGGGUAUGGUAAUAAGCUGACGGACAUGGUCCUAACCACGCAGCCAAGUCCUAAGUCAACAGAUCUUCUGUUGAUAUGGAUGCAGUUCACAGACUAAAUGUCGGUCGGGGAAGAUGUAUUCUUCUCAUAAGAUAUAGUCGGACCUCUCCUUAAUGGGAGCUAGCGGAUGAAGUGAUGCAACACUGGAGCCGCUGGGAACUAAUUUGUAUGCGAAAGUAUAUUGAUUAGUUUUGGAGUACUCGUGGUCG
In short: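 Colonies from six replicate transformations of E. coli BL21(DE3) were pooled and amplicon-sequenced on an Illumina HiSeq 2500. The library placed an intron with all eight P1ex-region nucleotides randomised inside the knt kanamycin-resistance gene on pET-22b(+), and cells grew overnight at 37°C or 30°C on LB agar with or without 25 μg/mL kanamycin (plus 100 μg/mL carbenicillin, 50 μM IPTG, 0.2% rhamnose). Fitness is the DiMSum error-weighted combination of wild-type-normalised replicate fold changes, kanamycin versus none.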

| Sequence | self-splicing fitness (ln) (30 °C) | self-splicing fitness (ln) (37 °C) |
| --- | --- | --- |
| UUGAAGCAAUAUUACGCUUG | -1.02 ± 0.064 | -0.679 ± 0.087 |
| UUGAAGCAAUAUUACGGAAA | -0.265 ± 0.1 | -0.0838 ± 0.14 |
| UUGAAGCAAUAUUACGGAGG | -0.866 ± 0.11 | -0.64 ± 0.14 |
| UUGAAGCAAUAUUACGGAUA | -0.345 ± 0.08 | -0.413 ± 0.1 |
| UUGAAGCAAUAUUACGGCUU | -3.03 ± 0.26 | -2.71 ± 0.3 |
| UUGAAGCAAUAUUACGGGAG | -1.2 ± 0.1 | -0.884 ± 0.12 |
| UUGAAGCAAUAUUACGGGCG | -0.128 ± 0.061 | 0.407 ± 0.084 |
| UUGAAGCAAUAUUACGGGGC | -3.3 ± 0.2 | -2.74 ± 0.3 |
| UUGAAGCAAUAUUACGGUUC | -3.01 ± 0.2 | -2.08 ± 0.27 |
| UUGAAGCAAUAUUACGUAUC |  | -1.93 ± 0.42 |
| UUGAAGCAAUAUUACGUGGA | -2.33 ± 0.11 | -1.6 ± 0.14 |
| UUGAAGCAAUAUUACGUGGG | -2.69 ± 0.099 | -1.35 ± 0.1 |
| UUGAAGCAAUAUUACGUUAA | -1.47 ± 0.075 | -0.311 ± 0.11 |
| UUGAAGCAAUAUUACGUUAC |  | -2.51 ± 0.23 |
| UUGCAGCAAUAUUACGAGGU | -3.94 ± 0.33 | -2.65 ± 0.44 |
| UUGCAGCAAUAUUACGAUUC | -3.53 ± 0.38 | -1.71 ± 0.19 |
| UUGCAGCAAUAUUACGCCAU | -2.8 ± 0.11 | -2.49 ± 0.16 |
| UUGCAGCAAUAUUACGCCCU | 0.32 ± 0.46 |  |

| Sequence | self-splicing fitness (ln) (30 °C) | self-splicing fitness (ln) (37 °C) |
| --- | --- | --- |
| UUGCAGCAAUAUUACGCGUG | -3.13 ± 0.14 | -2.7 ± 0.17 |
| UUGCAGCAAUAUUACGCGUU | -2.41 ± 0.21 | -1.94 ± 0.18 |
| UUGCAGCAAUAUUACGCUGG | -3.51 ± 0.32 |  |
| UUGCAGCAAUAUUACGCUGU | -2.71 ± 0.35 | -1.23 ± 0.32 |
| UUGCAGCAAUAUUACGGCCA | -0.118 ± 0.16 | 0.347 ± 0.19 |
| UUGCAGCAAUAUUACGGGAA | -1.51 ± 0.12 | 0.101 ± 0.11 |
| UUGCAGCAAUAUUACGGGCG | -0.91 ± 0.11 | -0.511 ± 0.11 |
| UUGCAGCAAUAUUACGGGUA | -1.76 ± 0.097 | -0.893 ± 0.087 |
| UUGCAGCAAUAUUACGGUAA | -0.988 ± 0.099 | -0.0317 ± 0.093 |
| UUGCAGCAAUAUUACGGUCC | -4.25 ± 0.39 | -2.69 ± 0.26 |
| UUGCAGCAAUAUUACGGUUA | 0.353 ± 0.082 | 0.0359 ± 0.075 |
| UUGCAGCAAUAUUACGUACC | -3.54 ± 0.47 | -2.55 ± 0.33 |
| UUGCAGCAAUAUUACGUAGG | -0.924 ± 0.086 | -0.486 ± 0.11 |
| UUGCAGCAAUAUUACGUCAA | -1.48 ± 0.1 | -0.523 ± 0.11 |
| UUGCAGCAAUAUUACGUCAG | -0.419 ± 0.11 | 0.42 ± 0.14 |
| UUGCAGCAAUAUUACGUCCC |  | -1.44 ± 0.37 |
| UUGCAGCAAUAUUACGUUCA | -0.896 ± 0.12 | 0.241 ± 0.12 |
